Substitutions are numbered along the chain they refer to. Names and notes keep the numbering of the source. Where a name gives a salt, the structure may show the parent alone.
B1: E432C: SSβG point mutant Glu-432→Cys (protein, listed as Sulfolobus solfataricus)
chain: MYSFPNSFRFGWSQAGFQSEMGTPGSEDPNTDWYKWVHDPENMAAGLVSGDLPENGPGYWGNYKTFHDNAQKMGLKIARLNVEWSRIFPNPLPRPQNFDESKQDVTEVEINENELKRLDEYANKDALNHYREIFKDLKSRGLYFILNMYHWPLPLWLHDPIRVRRGDFTGPSGWLSTRTVYEFARFSAYIAWKFDDLVDEYSTMNEPNVVGGLGYVGVKSGFPPGYLSFELSRRHMYNIIQAHARAYDGIKSVSKKPVGIIYANSSFQPLTDKDMEAVEMAENDNRWWFFDAIIRGEITRGNEKIVRDDLKGRLDWIGVNYYTRTVVKRTEKGYVSLGGYGHGCERNSVSLAGLPTSDFGWEFFPEGLYDVLTKYWNRYHLYMYVTENGIADDADYQRPYYLVSHVYQVHRAINSGADVRGYLHWSLADNYCWASGFSMRFGLLKVDYNTKRLYWRPSALVYREIATNGAITDEIEHLNSVPPVKPLRH
B2: M439C: SSβG point mutant Met-439→Cys (protein)
chain: B1 chain with C432E, M439C
B3: W433C: SSβG point mutant Trp-433→Cys (protein, listed as Sulfolobus solfataricus)
chain: B1 chain with C432E, W433C
B4: C344S: SsβG mutant C344S, side chain at position 439 —CH2CH2SCH3 (protein)
chain: B1 chain with C344S, C432E

Columns and labels:
[1] = Hydrolysis of 4-methylumbelliferyl-β-D-fucoside, initial rates; assay type: biochemical; settings: for Km / kcat: 4-MUFuc, 80° C., pH 6.5
Protocol: (§1) Parameters were determined by the method of initial rates. Activity was measured in time course assays of the hydrolysis of 4-methylumbelliferyl-β-D-glycosides (β-D-gluco, β-D-galacto, β-D-fuco, β-D-manno, β-D-xylo, β-D-glucurono) at 5-15 concentrations (0.001-1.5 mM) incubated at 80° C. in 50 mM sodium phosphate buffer, pH 6.5. Reactions were terminated at 2, 5, 10, 15 min by the addition of 100 μl of ice cold 1M NazCO3, pH 10 and analyzed (Labsystems Fluoroscan Ascent plate reader, […]). KM and kcat were derived by fitting the initial rates to hyperbolic Michaelis-Menten curves using GraFit 4 (Erithacus Software Ltd, Staines, UK).
(§2) Determination of the Michaelis-Menten parameters for the WT and mutant enzymes was performed at pH 6.5 at 80° C. for a broad range of representative, fluorophore-containing 4-methylumbelliferyl glycoside substrates, which allowed activities to be determined with a high degree of sensitivity (Table). Under these optimized assay conditions, the glucoside (Glc), galactoside (Gal) and fucoside (Fuc) substrates were hydrolysed well by SSβG-WT, but the xyloside (Xyl) substrate was hydrolysed relatively poorly (approx. 3% of turnover as determined by kcat compared with β-D-glucoside). […] In all cases the absolute D-stereospecificity and β-stereoselectivity of SSβG was maintained and no activity was detected towards L- or α-glycoside substrates.

[2] = Hydrolysis of 4-methylumbelliferyl-β-D-xyloside, initial rates; assay type: biochemical; settings: for Km / kcat: 4-MUXyl, 80° C., pH 6.5
Protocol: as §1, §2

[3] = Hydrolysis of 4-methylumbelliferyl-β-D-galactoside, initial rates; assay type: biochemical; settings: 80° C., pH 6.5; for Km / kcat: 4-MUGal
Protocol: as §1, §2

[4] = Hydrolysis of 4-methylumbelliferyl-β-D-glucuronide, initial rates; assay type: biochemical; settings: for kcat / Km: 4-MUGlcA, 80° C.
Protocol: as §1, §2

[5] = Hydrolysis of 4-methylumbelliferyl-β-D-mannoside, initial rates; assay type: biochemical; settings: for Km / kcat: 4-MUMan, 80° C., pH 6.5
Protocol: as §1, §2

[6] = Parallel one-pot glycoside synthesis (transglycosylation to MeOH); assay type: biochemical; settings: 8 h, 50° C., 1:9 MeOH:phosphate buffer pH 6.5
Protocol: Enzyme (WT, […] or E432C, 1 mg) was added to a mixed solution (1 mL) of para-nitrophenyl (pNP) β-D-manno-, galacto-, gluco- and xylo- pyranosides (0.03 mmol of each) in 1:9 MeOH:phosphate buffer (pH 6.5) and incubated at 50° C. for 45 min (WT), 4 h (WT), 8 h (W433C, E432C). After this time the solutions were extracted with EtOAc to remove para-nitrophenol and passed through short Sephadex and Celite:Graphite (1:1) columns to remove protein, pNP-glycoside and remaining para-nitrophenol. Solvent was removed and product mixtures were analysed by ^1H NMR and ESMS. Yields based on donor were calculated from integration of anomeric proton resonances in ^1H NMR (D2O, 500 MHz): α-Gal (δ 5.12, d, […]), α-Glc (δ 5.08, d, 3.8 Hz), α-Xyl (δ 5.04, d, J=3.4 Hz), α-Man (δ 5.03, d, J=1.8 Hz), β-Man (δ 4.75, s), β-Glc (δ 4.49, d, J=8.0 Hz), P-Gal (δ 4.45, d, 7.9 Hz), Me-β-Man (δ 4.44, s), β-Xyl (δ 4.42, d, J=7.8 Hz), Me-β-Glc (δ 4.23, d, J 8.1 Hz), Me-β-Xyl (δ 4.18, d, J=7.8 Hz), Me-β-Gal (δ 4.17, d, J=8.0 Hz).
Scheme 1: Parallel glycoside syntheses using SSβG-WT, -E432C and -W433C as catalysts. […] Such balanced libraries are not produced by SSβG-WT even under varying reaction times.

[7] = Hydrolysis of 4-methylumbelliferyl-β-D-glucoside, initial rates; assay type: biochemical; settings: 80° C., pH 6.5; for Km / kcat: 4-MUGlc
Protocol: as §1, §2

[8] = Substrate specificity compared across 4-methylumbelliferyl-β-D-glycosides; assay type: biochemical
Protocol: as §1, §2

[9] = Kinetic assay with p-nitrophenyl β-D-galactopyranoside, absorbance at 405 nm; assay type: biochemical; settings: pNPGal, 45° C., pH 6.5 phosphate buffer, averaged over 3 runs, except * 2 runs
Protocol: (§3) The kinetic activity of SsδG was assessed using ultra-violet/visible spectroscopy. Cleavage of the glycosidic bond of the nitrophenyl sugar analogue releases a chromophore (Scheme 18), either p-nitrophenol or o-nitrophenol.
(§4) The absorbance of these chromophores at 405 nm was continuously measured at regular time intervals, and the Beer-Lambert Law used to calculate the chromophore concentration at each of these time intervals.
(§5) In order to use this equation the extinction coefficient, ∈, of both p-nitrophenol and o-nitrophenol were calculated. Enzyme kinetic parameters were assessed using the initial rates method. The gradient of a plot of chromophore concentration against time gave the initial rate of reaction at a series of substrate concentrations (0.05-10 mM). Kinetic parameters were calculated by regression analysis of the kinetic data on the Michaelis-Menten Model (Fersht, A., Enzyme Structure and Mechanism, W.H. Freeman and Company, New York (1985)). The initial rate of reaction was measured. This model is valid when [substrate]>>[enzyme], which are initial rate conditions.
(§6) KM and νmax were calculated from non-linear Michaelis-Menten and linear Lineweaver-Burk plots. From these values, kcat and kcat/KM were calculated and compared.
(§7) KM=νmax/2, it is the concentration of substrate at which half the active sites are filled. Higher KM values correspond to weaker binding and lower KM values correspond to stronger binding kcat, the turnover number is the number of substrate molecules which are converted to product when the enzyme is saturated with substrate and ν (rate) is maximised. Given both of these considerations, binding and rate, kcat/KM is typically as a measure of the overall relative activity of the enzyme. To allow comparison of the activity of the enzymes, ln({kcat/KM}mutant/{kcat/KM}WT) was calculated for each enzyme-substrate combination, to give overall activity relative to WT.
Substrate solutions (concentration 10 mM in 50 mM pH 6.5 phosphate buffer) were prepared. Kinetic assays were conducted in a 96-well flat bottom microtitre plate. Eight substrate concentrations were chosen for the assay from the range 0.05 mM to 10 mM (prepared from 10 mM stock solution), based on previous experimental experience of the kinetics of each enzyme (default range 0.05 mM to 2.00 mM)*. The enzyme stock solution (˜1 mgmL^−1) was diluted between 16- and 80-fold depending on the kinetic parameters determined*. The enzyme solution (496 µL) was dispensed into a 1.5 mL sealed Eppendorf tube. Into eight further Eppendorf tubes a portion of each substrate solution (650 μL) was dispensed. The tubes were incubated in a Techni Dri Block at 45° C. Simultaneously a 96-well flat bottom microtitre plate was incubated at 45° C. in a plate reader. […] The plate containing the enzyme and substrate solutions was then incubated in the plate reader at 45° C. to allow equilibration. […] Release of p-nitrophenol/o-nitropbenol was measured by absorbance at […], with an automix of 3 s before the first read and Is between every subsequent read. The run time chosen was between 6 min and 10 min*, and readings were taken at intervals of between 6 s and 10 s*.
(§8) A graph of concentration of the released chromophore (either pNP or oNP) against time was drawn for each concentration using Microsoft Excel. […] These gradients were entered into Grafit, which calculated KM and νmax from the Michelis-Menten and Lineweaver-Burk plots. From these kcat and kcat/KM could be calculated. […]

[10] = Kinetic assay with o-nitrophenyl β-D-galactopyranoside-6-phosphate, absorbance at 405 nm; assay type: biochemical; settings: oNPGalP6, 45° C., pH 6.5 phosphate buffer; averaged over 3 runs, except * 2 runs
Protocol: as §3, §4, §5, §6
as §7, with “Given both of these considerations, binding and rate, kcat/KM is typically as a measure of the overall relative activity of the enzyme.” left out
Substrate solutions (concentration 10 mM in 50 mM pH 6.5 phosphate buffer) were prepared. […] The enzyme stock solution (˜1 mgmL^−1) was diluted between 16- and 80-fold depending on the kinetic parameters determined*. […] Simultaneously a 96-well flat bottom microtitre plate was incubated at 45° C. in a plate reader. […] The plate containing the enzyme and substrate solutions was then incubated in the plate reader at 45° C. to allow equilibration. […] Release of p-nitrophenol/o-nitropbenol was measured by absorbance at […], with an automix of 3 s before the first read and Is between every subsequent read. The run time chosen was between 6 min and 10 min*, and readings were taken at intervals of between 6 s and 10 s*.
as §8

melting point [°C] | Molecule | Km [1] [µM] | kcat [1] [s⁻¹] | Km [2] [µM] | kcat [2] [s⁻¹] | Km [3] [µM] | kcat [3] [s⁻¹] | Gal kcat/KM reduction relative to WT [3] [fold] | kcat ([4]; pH 6.5) | Km [5] [µM] | kcat [5] [s⁻¹] | Yield of Products, product 1 (β-glycoside of Glc) [6] [%] | Yield of Products, product 2 (β-glycoside of Gal) [6] [%] | Yield of Products, product 3 (β-glycoside of Man) [6] [%] | Yield of Products, product 4 (β-glycoside of Xyl) [6] [%] | Yield of Products, product 5 [6] [%] | Yield of Products, product 6 [6] [%] | Yield of Products, product 7 [6] [%] | Km [7] [µM] | kcat [7] [s⁻¹] | also measured
44 to 46 | CS(=O)(=S)OCCC(=O)O (stereo not drawn) [Enzyme 16, 2-carboxyethyl methanethiosulfonate] |  |  |  |  |  |  |  |  |  |  |  |  |  |  |  |  |  |  |  | 
181 to 183.1 | O=[N+]([O-])c1ccccc1O[C@@H]1O[C@H](COP(=O)(O)O)[C@H](O)[C@H](O)[C@H]1O (as salt: ammonium) [Enzyme 17, o-nitrophenyl β-D-galactopyranoside 6-phosphate] |  |  |  |  |  |  |  |  |  |  |  |  |  |  |  |  |  |  |  | 
 | B1 | 340 ± 40 | 18 ± 1 | 1260 ± 210 | 2.8 ± 0.3 | 470 ± 140 | 5.4 ± 0.8 | 130 | NAD | 900 ± 260 | 2.8 ± 0.7 | 22 | 24 | 14 | 17 | 7 | 9 | 3 | 340 ± 70 | 5.1 ± 0.5 | activity towards GlcA ([4]; pH 6.5): no detectable activity; kcat (Man) increase relative to WT [5]: 2 fold; Yield of Products, product 8 [6]: 4%; Glc kcat/KM reduction relative to WT [7]: 200 fold; kcat values for Glc,Gal,Xyl,Man substrates [8]: 2.8 to 5.4 s⁻¹
 | B2 | 23 ± 5 | 91 ± 8 | 68 ± 7 | 9.3 ± 0.2 | 83 ± 16 | 94 ± 11 |  | 1.3 ± 0.4 s⁻¹ | 42 ± 15 | 2.3 ± 0.4 |  |  |  |  |  |  |  | 68 ± 28 | 190 ± 40 | kcat/KM for Fuc lower than WT [1]: 1.8 fold; kcat/KM for Xyl higher than WT [2]: 4.7 fold; absolute increase in Xyl activity ([2]; relative to WT): 5 fold; kcat/KM for GlcA higher than WT [4]: 1.5 fold; Km ([4]; pH 6.5, read-out: Km): 1400 ± 600 µM; increase in Xyl over Fuc specificity ([8]; relative to WT): 10 fold
 | B3 | 410 ± 90 | 31 ± 3 | 590 ± 190 | 1.5 ± 0.3 | 2200 ± 1200 | 14 ± 6 | 230 | NAD | 180 ± 20 | 0.92 ± 0.05 | 36 | 18 | 8 | 13 | 11 | 6 | 3 | 1610 ± 350 | 33 ± 5 | kcat (Xyl) lowering relative to WT [2]: 2.9 fold; Km ([4]; pH 6.5): NAD^; Yield of Products, product 8 [6]: 5%; Glc kcat/KM reduction relative to WT [7]: 140 fold; broadening of Gal:Man stereospecificity relative to WT [8]: 25 fold; specificity range of kcat/KM for Glc:Gal:Xyl:Man [8]: 8 fold
 | B4 |  |  |  |  |  |  |  |  |  |  |  |  |  |  |  |  |  |  |  | kcat [9]: 4.16 s⁻¹; Km ([9]; read-out: KM): 475 µM; Km [10]: 3590 µM; kcat [10]: 8.42 s⁻¹
